In IntAct's records for PubMed 12551906:

B1: Dolichyl-phosphate-mannose--protein mannosyltransferase 1 (Saccharomyces cerevisiae), P33775 (parent)
chain: MSEEKTYKRVEQDDPVPELDIKQGPVRPFIVTDPSAELASLRTMVTLKEKLLVACLAVFTAVIRLHGLAWPDSVVFDEVHFGGFASQYIRGTYFMDVHPPLAKMLYAGVASLGGFQGDFDFENIGDSFPSTTPYVLMRFFSASLGALTVILMYMTLRYSGVRMWVALMSAICFAVENSYVTISRYILLDAPLMFFIAAAVYSFKKYEMYPANSLNAYKSLLATGIALGMASSSKWVGLFTVTWVGLLCIWRLWFMIGDLTKSSKSIFKVAFAKLAFLLGVPFALYLVFFYIHFQSLTLDGDGASFFSPEFRSTLKNNKIPQNVVADVGIGSIISLRHLSTMGGYLHSHSHNYPAGSEQQQSTLYPHMDANNDWLLELYNAPGESLTTFQNLTDGTKVRLFHTVTRCRLHSHDHKPPVSESSDWQKEVSCYGYSGFDGDANDDWVVEIDKKNSAPGVAQERVIALDTKFRLRHAMTGCYLFSHEVKLPAWGFEQQEVTCASSGRHDLTLWYVENNSNPLLPEDTKRISYKPASFISKFIESHKKMWHINKNLVEPHVYESQPTSWPFLLRGISYWGENNRNVYLLGNAIVWWAVTAFIGIFGLIVITELFSWQLGKPILKDSKVVNFHVQVIHYLLGFAVHYAPSFLMQRQMFLHHYLPAYYFGILALGHALDIIVSYVFRSKRQMGYAVVITFLAASVYFFKSFSPIIYGTPWTQELCQKSQWLSGWDYNCNTYFSSLEEYKNQTLTKRESQPAATSTVEEITIEGDGPSYEDLMNEDGKKIFKDTEGNELDPEVVKKMLEEEGANILKVEKRAVLE
partner: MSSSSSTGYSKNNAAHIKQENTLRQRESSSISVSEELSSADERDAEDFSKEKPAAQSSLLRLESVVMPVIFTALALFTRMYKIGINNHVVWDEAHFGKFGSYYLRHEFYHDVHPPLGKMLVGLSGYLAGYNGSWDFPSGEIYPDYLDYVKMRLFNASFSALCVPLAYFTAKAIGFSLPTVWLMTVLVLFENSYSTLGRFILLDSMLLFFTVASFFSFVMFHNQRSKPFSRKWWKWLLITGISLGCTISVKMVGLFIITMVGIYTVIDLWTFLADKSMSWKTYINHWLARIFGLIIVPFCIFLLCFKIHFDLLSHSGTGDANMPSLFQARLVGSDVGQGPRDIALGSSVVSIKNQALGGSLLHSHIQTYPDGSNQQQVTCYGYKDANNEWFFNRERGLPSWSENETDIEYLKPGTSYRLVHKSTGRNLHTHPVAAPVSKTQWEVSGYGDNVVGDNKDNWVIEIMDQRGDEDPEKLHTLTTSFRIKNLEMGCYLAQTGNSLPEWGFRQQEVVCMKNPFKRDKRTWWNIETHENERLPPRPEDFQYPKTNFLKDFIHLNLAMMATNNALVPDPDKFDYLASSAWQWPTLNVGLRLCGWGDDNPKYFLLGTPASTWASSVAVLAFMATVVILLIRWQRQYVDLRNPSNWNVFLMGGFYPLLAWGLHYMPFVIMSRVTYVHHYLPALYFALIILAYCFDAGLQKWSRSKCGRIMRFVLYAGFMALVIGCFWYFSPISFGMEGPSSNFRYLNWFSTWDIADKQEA

Variants of: B1
Conditions: with pmt2_yeast PMT2, P31382
With R138K the “effect of a mutation on the interaction” value was “decreasing interaction strength”.
In the case of R138A, the “effect of a mutation on the interaction” value is reported as “disrupting interaction strength”.
